Source: the supplement of paper PMC9170038

Tested on: MS2 coat protein
Assay: apparent KD of MS2 coat protein; designed switch direction (-1 OFF switch, 1 ON switch): -1; higher = weaker reporter binding
In short: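 Normalised cluster fluorescence was curve-fitted, and each design's median over clusters is its apparent KD. Before this, SNAP-549-labelled MS2 coat protein was titrated from 0.7 or 1.5 nM, doubling to 3 µM, over RNA switches transcribed on Illumina chips by stalled E. coli RNA polymerase. Titrations had no input, 200 uM small-molecule ligand, or an oligonucleotide input, and steps lasted 0.8–1.5 h (lowest) to 10–20 min (highest).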

[1] = Eterna round: R95, input ligand: microRNA oligo, concentration not stated
[2] = input ligand: microRNA oligo, concentration not stated
[3] = Eterna round: R95, input ligand: FMN 200 uM
[4] = Eterna round: R95, input ligand: none

| Sequence | apparent KD of MS2 coat protein (input ligand: FMN 200 uM) [nM] | apparent KD of MS2 coat protein (input ligand: none) [nM] | further results |
| --- | --- | --- | --- |
| UUUGUUUAUGUGAGGAUAUACUGUUUGUUUUGUUUGUAGAAGGUACAUGAGGAUCACCCAUGUUUUGUAUUUAU [JR_BME4_Sub034] (puzzle: Brourd's mod of Exclusion 4) | – | – | apparent KD of MS2 coat protein [1]: 18.4 nM |
| CGGAUGUUAGGAUAUUAGUAGUAGUCAGAAAAGACUAUUACUGAGAAGGAACAUGAGGAUCACCCAUGUUUCCG [Mat - Exclusion 4 - Eli Mod - D44] (Eterna round: R97, puzzle: Exclusion 4) | 17 | 15.4 | – |
| GCAGCAUAUGUAGGAUAUCUGCACGUUUAGUGCAGAGAAGGACAUGAGGAUCACCCAUGUAAUUAAGAUCAAUUAUUAAGCUGC [ENG1/4-A2] (Eterna round: R96, puzzle: Exclusion NG 1) | 42.5 | 26.2 | apparent KD of MS2 coat protein [2]: 17.2 nM |
| CAAACAAGCGAAAGAUCCCACAUGAGGAUCACCCAUGUGCUCGUCUUAUAAGGUACUGUGACGAAAGUCACGGUACC [Sensor 3, v1 - 91 v21] (Eterna round: R97, puzzle: Sensor, turn-off variant 1) | 38.4 | 45.3 | – |
| CUGAGGUAGCGGUCCUAUGACAUGAGGAUCACCCAUGUGCCUUGCUACAAGCUUUUUGCUCGUCUUAUGAUUCUCGG [JL Atriat mod 9] (puzzle: Sensor v3, turn-off variant 1) | – | – | apparent KD of MS2 coat protein [3]: 47.8 nM; apparent KD of MS2 coat protein [1]: 107 nM; apparent KD of MS2 coat protein [4]: 51.9 nM |
| UCAAGUAUGUAGGAUAUCGAUGUCCUUGGACAUCGAGAAGGACGUACAUGAGGAUCACCCAUGUAACUUGCAUG [Exclusion 6 - B - 10:e] (puzzle: Exclusion 6) | – | – | apparent KD of MS2 coat protein [3]: 103 nM; apparent KD of MS2 coat protein [1]: 138 nM; apparent KD of MS2 coat protein [4]: 94.5 nM |
| CCAAGCUUAUUCAUUAACCACAUGAGGAUCACCCAUGUAUAGGCAAUUAUGACUGGGCCAUCUGGUGCUCGUCUUAU [Sensor-V1 #29] (Eterna round: R97, puzzle: Sensor, turn-off variant 1) | 16.2 | 15.2 | – |
| UCUUAUUGAGGAUAUACAGAUUAUUACAUGAGGAUCACCCAUGUUCUUCAAUGUAUAUAUGUAGAAGGCAGAGGAA [Mat - Exclusion 5 - JL Mod - D11] (Eterna round: R97, puzzle: Exclusion 5) | 112 | 67.4 | – |
| UUUUAACAAGCGAGAUCCUACAUGAGGAUCACCCAUGUAGACCAUGGUUUCCAUGGUCUUUUUGCUCGUCUUGUGUG [jl TITIN mod 6] (Eterna round: R97, puzzle: Sensor, turn-off variant 1) | 22.5 | 23.3 | – |
| CAACAGGGAGGAUAUACAUGAGGAUCACCCAUGUUCGAGCGUCCUUGAACUACCUCUGGUAGAAGGCCCACACG [Bibiorbi] (Eterna round: R97, puzzle: Exclusion 3) | 147 | 56.9 | – |
| CUAUUGGCAGGAUAUGCUUUUUUAGACAUGAGGAUCACCCAUGUGAUGAAUAUUGGGUUUGCAGAAGGGCCUGAAU [JR_E5_Sub039] (puzzle: Exclusion 5) | – | – | apparent KD of MS2 coat protein [1]: 64.2 nM |
| CACCUGAAGAGAGGAUAUGAUACAUGAGGAUCACCCAUGUAAUAAAUGAGAAUUUCGAAUGUAAUUCAGAAGGCUCGAUAAGGC [Ostricism 100 - Jieux - Exclusion NG 2] (Eterna round: R96, puzzle: Exclusion NG 2) | 121 | 55.3 | apparent KD of MS2 coat protein [2]: 45.6 nM |
| AGUAACAGAGGAUAUACUGUUUUAUGUAUUUAUUAUUUUAAACAUGAGGAUCACCCAUGUAGAAGGCUGAAUGA [JMF 98] (puzzle: Exclusion 2) | – | – | apparent KD of MS2 coat protein [1]: 22.4 nM |
| GCUGGUAUAGGAUAUACGUAAGACGUGGUCCACAGUUAAUUACAUGAGGAUCACCCAUGUAGAAGGAUGGAAGC [Eternabot (L2) Solution 95] (Eterna round: R97, puzzle: Exclusion 2) | 298 | 65.8 | – |
| GUCCUGGCUUUUCACAGGCACAUGAGGAUCACCCAUGUCGUGGGUAGAUCCCUCCCUGGGAAAUCUGCUCGUCUUAU [Cac Sensor turn off v1 sub12] (Eterna round: R97, puzzle: Sensor, turn-off variant 1) | 78.9 | 84.6 | – |
| GAUCCACAUGAGGAUCACCCAUGUUAGGAUAUGACAACGACUCGCACUACGUUGUUGCUCAGAAGGAGCACCCA [Eternabot (Original) Solution 10] (Eterna round: R97, puzzle: Exclusion 1) | 19.1 | 18.3 | – |
| AAGUAGACGGUGAGGAUAUAGGUCGAAUGACCGAUUUAGAAGGCACAUGAGGAUCACCCAUGUGGGUAACGUCG [Brourd's EX4 #30] (Eterna round: R97, puzzle: Brourd's mod of Exclusion 4) | 24.1 | 27.5 | – |
| UGCCGAUGAGGAUAUACAUUGAAUAAGAUUCAUGUAAAACUACAUGAGGAUCACCCAUGUAGAAGGCAUUGGCU [Mat - Exclusion 2 - JL Mod - D69] (Eterna round: R97, puzzle: Exclusion 2) | 25.7 | 15.6 | – |
| AACCAGCGAGGAUAUGCUUGAGCUUGUUCUGGUUAUAAUCGACUUGAGGAUCACCCAAGUAGAAGGUGCUGGCG [EX2 #57] (Eterna round: R97, puzzle: Exclusion 2) | 42.6 | 20 | – |
| AAUUUAUGAGGAUAUACAGUGUAAAACAUGAGGAUCACCCAUGUUCUUCAAUUAGUAUAUGUAGAAGGCAUAUGUA [JR_Ex5_Sub096] (Eterna round: R97, puzzle: Exclusion 5) | 15 | 13.7 | – |
| CUGAAAGACGAAGGAUAUCCAGGCGCCGGCGUAGGAGAAGGUCGUCCGGGUGUCCUAGAACUUGAGGAUCACCCAAGUAGAAGA [Mutated MS2 EX1.14] (Eterna round: R96, puzzle: Exclusion NG 1) | 36.8 | 53.1 | apparent KD of MS2 coat protein [2]: 24.9 nM |
| UUAUUACAAGCAAGAUCUCACAUGAGGAUCACCCAUGUGCUCGUCUUAAAAGGUACUGUGACGAAAGUCACGGUACC [Eli 100 v3] (Eterna round: R97, puzzle: Sensor, turn-off variant 1) | 16.4 | 14.9 | – |
| GAUUGACAUGAGGAUCACCCAUGUGAGGAUAUCGGCUGGACCGUGUUGGCUUCCGUCUCGAGAAGGCGCAUAGG [Exclusion 1 V43] (Eterna round: R96, puzzle: Exclusion 1) | 43.5 | 26.8 | apparent KD of MS2 coat protein [2]: 23.9 nM |
| AGAAGUGCCGAGGAUAUCCAGGCAAUCUCGUUCGGAGAAGGCGGCACUUGAGGAUCACCCAAGUGCUCCUAAGA [Islariat] (Eterna round: R97, puzzle: Exclusion 6) | 52.1 | 14.1 | – |
| CAAAUUGCAGGAUAUACUGGGCCAGAGCCAUCGUGUAUUCCACAUGAGGAUCACCCAUGUAGAAGGGCACGUAC [Aqueran] (puzzle: Exclusion 2) | – | – | apparent KD of MS2 coat protein [1]: 23.8 nM |
| ACCUCACAUGAGGAUCACCCAUGUAAGGAUAUCUUCGCUUUGACGUUGCUCUAUGCGAAGAGAAGGUACACGGA [Xeteed] (Eterna round: R97, puzzle: Exclusion 1) | 84.8 | 20.6 | – |
